The values below come from patent US20200157194A1 (Regeneron, published 2020).

Test [1] has as its target T1, recombinant human GREM1 (hGREM1-His; C-terminal 10His tagged, R&D, #5190-GR) (human, UniProt O60565 25-184, limits assumed).
T1 sequence: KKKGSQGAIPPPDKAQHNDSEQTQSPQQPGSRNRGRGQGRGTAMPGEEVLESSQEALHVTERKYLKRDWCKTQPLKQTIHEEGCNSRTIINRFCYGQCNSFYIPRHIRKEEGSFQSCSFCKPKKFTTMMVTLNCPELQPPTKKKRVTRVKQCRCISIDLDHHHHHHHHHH
The test can be described thus: cell-based or functional assay.

Test [2] has as its target T1, recombinant human GREM1 (hGREM1-His; …). The experiment in a line: cell-based or functional assay. The source holds these as a separate data set.
The target is the same in test [3]. The test can be described thus: BLI Octet, mAb captured, 100 nM GREM1. (In general: BLI is a label-free optical method that tracks binding on a fibre tip over time.)
Test [4] shares this target. The experiment in a line: BLI Octet, mAb captured, 100 nM GREM1 + 5 uM heparin.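 Further: octet Red96 biolayer interferometry at 25 °C, antibodies captured on anti-human IgG Fc biosensors, pH 7.4 HEPES buffer with 0.1 mg/mL BSA.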
Test [5] addresses T2, human GREM1 (hGREM1-His; SEQ ID NO: 595) (human, UniProt O60565 25-184).
T2 construct: also called biotin-hGREM1-His; recombinant human GREM1 protein
T2 sequence: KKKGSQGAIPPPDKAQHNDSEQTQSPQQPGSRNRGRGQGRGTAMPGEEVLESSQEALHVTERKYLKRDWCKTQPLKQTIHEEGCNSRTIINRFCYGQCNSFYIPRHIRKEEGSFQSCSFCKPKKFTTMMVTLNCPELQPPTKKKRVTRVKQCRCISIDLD
The experiment in a line: SPR, Biacore T200, 25 C, mAb captured, hGREM1-His injected.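 Further: Heparin-supplemented HBS-EP+ used as running buffer, association and dissociation phases followed, Kd computed as koff divided by kon and half-life derived from koff.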 Background: In SPR one partner is held on a chip, and binding of the other changes the refractive index at the surface.

For test [6], the target named is T2, human GREM1 (hGREM1-His; SEQ ID NO: 595). The test can be described thus: SPR, Biacore T200, 37 C, mAb captured, hGREM1-His injected.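 Further: HBS-EP running buffer containing heparin, association and dissociation phases tracked, KD computed as koff over kon and half-life derived from koff.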
The target in test [7] is T1, recombinant human GREM1 (hGREM1-His; …). The test can be described thus: BLI Octet, mAb captured, 100 nM GREM1 without vs with 5 uM heparin.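 Further: octet Red96 biolayer interferometry at 25 °C, antibodies captured on anti-human IgG Fc biosensors, association of GREM1 measured with versus without heparin in HEPES-buffered saline, pH 7.4.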
Test [8] has as its target T2, human GREM1 (hGREM1-His; SEQ ID NO: 595). The test can be described thus: competition ELISA, biotin-hGREM1-His (100 pM) binding to coated hBMP4.

B1: H4H6240P (antibody, human IgG4, V domains shown)
VH: QVQLVESGGGVVQPGRSLRLSCAASGFTFSSYGMHWVRQAPGKGLEWVAVIWYDGSNKYYADSVKGRFIISRDNSKNMMYLQMNSLRAEDTAVYYCAREDNWNYAFDYWGQGTLVTVSS
VL: EIVMTQSPATLSVSPGERATLSCRASQSISSNLAWYQQKPGQAPRLLIYDSSTRATGIPARFSGSGSGTQFTLTISSLQSEDFALYYCQQYSNWPPFTFGPGTKVDIK
notes: H4H prefix = human IgG4 Fc
Consider B1, for which, in test [1], the “IC50 [M], inhibition of hGREM1-His, W-20-17/BRE-luc luciferase (100 pM hBMP4, 10 nM hGREM1-His)” value (“IC50 [M], inhibition of hGREM1-His” for short) turned out to be 8.1e-10 M. For the same molecule, the “hGREM1-His Inhibition IC50, M; W-20-17 cell differentiation assay (alkaline phosphatase)” value in test [2] came to 7.8 nM. Also, in test [3], the “Binding Signal with 30 sec Association” value came out at 0.23 nm and the “Binding Signal with 300 sec Association” value was found to be 0.53 nm. In test [4], the “Binding Signal with 30 sec Association” value came out at 0.05 nm and the “Binding Signal with 300 sec Association” value was found to be 0.37 nm. For the same molecule, in test [5], the Kd turned out to be 4 nM, the koff is 0.000319 s⁻¹, the kon worked out at 79700 M⁻¹ s⁻¹ and the t1/2 worked out at 36 min. In test [6], this molecule returned a dissociation constant Kd of 9.75 nM, a koff of 0.00118 s⁻¹, a kon of 121000 M⁻¹ s⁻¹ and a t1/2 of 10 min. Also, in test [7], the “Reduction in Signal from Heparin at 30 sec” value (“Reduction … at 30 sec” for short) came out at 0.18 nm and the “Reduction in Signal from Heparin at 300 sec” value (“Reduction … at 300 sec” below) is 0.16 nm. In test [8], the “% blocked at maximum Ab tested (20 nM)” value came out at 60% and the IC50 is 0.65 nM.

B2: H4H6245P (antibody, human IgG4, V domains shown)
VH: EVQLVESGGGLVQPGGSLRLSCAASGFTFNSFWMSWVRQAPGKGLEWVANIKQDGSEKYYVDSVKGRFTISRDNAKNSVYLQMNSLRAEDTAVYYCARDLVTSFDYWGQGTLVTVSS
VL: DIQMTQSPSSLSASVGDRVTITCQASQDINNYLNWYQQKPGKAPKLLIYDASYLETGVPSGFSGSGSGTDFTFTISSLQPEDIATYYCQQYDSLPYTFGQGTKLEIK
notes: H4H prefix = human IgG4 Fc
For B2, the “IC50 [M], inhibition of hGREM1-His” value in test [1] was 5.3e-10 M. In test [2], the “hGREM1-His Inhibition IC50, M; W-20-17 cell differentiation assay (alkaline phosphatase)” value was found to be 6.1 nM. In test [3], the “Binding Signal with 30 sec Association” value stood at 0.23 nm and the “Binding Signal with 300 sec Association” value came out at 0.41 nm. Moreover, in test [4], the “Binding Signal with 30 sec Association” value was 0.02 nm and the “Binding Signal with 300 sec Association” value came out at 0.22 nm. Further, in test [5], the Kd amounted to 1.51 nM, the off-rate constant (koff) turned out to be 0.000117 s⁻¹, the kon stood at 77900 M⁻¹ s⁻¹ and the t1/2 came out at 98 min. Also, in test [6], the Kd stood at 2.53 nM, the koff worked out at 0.000262 s⁻¹, the kon is 103000 M⁻¹ s⁻¹ and the t1/2 was determined as 44 min. In test [7], the “Reduction … at 30 sec” value was found to be 0.21 nm and the “Reduction … at 300 sec” value came to 0.19 nm. In test [8], the “% blocked at maximum Ab tested (20 nM)” value worked out at 96% and the IC50 was 0.036 nM.

B3: H4H6250P (antibody, human IgG4, V domains shown)
VH: QVQLVESGGGVVQPGRSLRLSCAASGFTFSNYGMHWVRQAPGKGLEWVAVIWYDGSNKYYADSVKGRFTISRDNSRKTLYLQMNSLRAEDTAIYYCTRDDYGDYDYPFDYWGQGTLVTVSS
VL: DIQMTQSPSSLSASVGDRVTITCRASQGIRNDLGWYQQKPGKAPKRLIYAASSLQSGVPSRFSGTGSGTEFTLTISSLQPEDFATYYCLQHNSYPPFTFGPGTKVDIK
notes: H4H prefix = human IgG4 Fc
On to B3, for which, in test [1], the “IC50 [M], inhibition of hGREM1-His” value came out at 4.4e-10 M. Also, the “hGREM1-His Inhibition IC50, M; W-20-17 cell differentiation assay (alkaline phosphatase)” value in test [2] was found to be 12 nM. In addition, in test [3], the “Binding Signal with 30 sec Association” value was 0.2 nm and the “Binding Signal with 300 sec Association” value was 0.37 nm. Besides, in test [4], the “Binding Signal with 30 sec Association” value was 0.06 nm and the “Binding Signal with 300 sec Association” value amounted to 0.32 nm. In test [5], this molecule yielded a Kd of 3.3 nM, a koff of 0.000297 s⁻¹, a kon of 90100 M⁻¹ s⁻¹ and a t1/2 of 39 min. In test [6], binding was characterised by a dissociation constant (Kd) of 5.93 nM, the dissociation rate constant (koff) stood at 0.000882 s⁻¹, the kon is 149000 M⁻¹ s⁻¹ and the t1/2 stood at 13 min. In test [7], the “Reduction … at 30 sec” value came to 0.14 nm and the “Reduction … at 300 sec” value was 0.05 nm. Besides, in test [8], the “% blocked at maximum Ab tested (20 nM)” value was 42% and the concentration for half-maximal inhibition (IC50) is 0.11 nM.

B4: H4H6246P (antibody, human IgG4, V domains shown)
VH: QVQLVESGGGVVQPGRSLRLSCAASGFTFSSYGMHWVRQAPGKGLEWVAIIWYDGSNRYYADSVKGRFTISRDNSRNTLYLQMNSLRAEDTAVYYCARDEYGDYDYPFDYWGQGTLVTVSS
VL: DIQMTQSPSSLSASVGDRVTITCRASQGIRNDLGWFQQKPGKAPKRLIYAASSLQSGVPSRFSGSGSGTEFTLTISSLQPEDFATYYCLQHNTYPPFTFGPGTKVDIK
notes: H4H prefix = human IgG4 Fc
As for B4, the “IC50 [M], inhibition of hGREM1-His” value in test [1] stood at 5.6e-10 M. Also, the “hGREM1-His Inhibition IC50, M; W-20-17 cell differentiation assay (alkaline phosphatase)” value in test [2] was found to be 6.2 nM. For the same molecule, in test [3], the “Binding Signal with 30 sec Association” value turned out to be 0.19 nm and the “Binding Signal with 300 sec Association” value stood at 0.38 nm. Also, in test [4], the “Binding Signal with 30 sec Association” value turned out to be 0.06 nm and the “Binding Signal with 300 sec Association” value stood at 0.34 nm. Moreover, in test [5], binding was characterised by a dissociation constant (Kd) of 2.59 nM, the koff was 0.000192 s⁻¹, the kon came out at 73900 M⁻¹ s⁻¹ and the t1/2 came out at 60 min. In test [6], this molecule gave a Kd of 3.5 nM, a koff of 0.000444 s⁻¹, a kon of 127000 M⁻¹ s⁻¹ and a t1/2 of 26 min. In test [7], the “Reduction … at 30 sec” value is 0.13 nm and the “Reduction … at 300 sec” value worked out at 0.04 nm. Besides, in test [8], the “% blocked at maximum Ab tested (20 nM)” value is 62% and the IC50 amounted to 1.5 nM.

B5: H4H6238P (antibody, human IgG4, V domains shown)
VH: QVQLVESGGGLVKPGGSLRLSCAASGFTFSDYYMSWIRQAPGKGLEWVSYIGTRGSSIYYADSLKGRFTISRDNAKNSLYLQMNSLRAEDTAVYYCARDPTGTSYFDYWGQGTLVTVSS
VL: not shown
notes: H4H prefix = human IgG4 Fc
On to B5, for which the “IC50 [M], inhibition of hGREM1-His” value in test [1] turned out to be 1.1e-09 M. The “hGREM1-His Inhibition IC50, M; W-20-17 cell differentiation assay (alkaline phosphatase)” value in test [2] is 22 nM. In addition, in test [3], the “Binding Signal with 30 sec Association” value is 0.13 nm and the “Binding Signal with 300 sec Association” value came to 0.41 nm. Moreover, in test [4], the “Binding Signal with 30 sec Association” value was determined as 0.02 nm and the “Binding Signal with 300 sec Association” value is 0.33 nm. In test [5], this molecule gave a Kd of 9.32 nM, a koff of 0.000225 s⁻¹, a kon of 24100 M⁻¹ s⁻¹ and a t1/2 of 51 min. Besides, in test [6], the Kd turned out to be 16.4 nM, the off-rate (koff) turned out to be 0.000931 s⁻¹, the kon was found to be 56900 M⁻¹ s⁻¹ and the t1/2 was 12 min. Moreover, in test [7], the “Reduction … at 30 sec” value was 0.11 nm and the “Reduction … at 300 sec” value worked out at 0.08 nm. In addition, in test [8], the “% blocked at maximum Ab tested (20 nM)” value came out at 64% and the IC50 was found to be 0.97 nM.

Usually Kd stands for the equilibrium constant for the complex coming apart. A lower Kd goes with tighter binding. The koff is the first-order rate constant of dissociation. A low value points to a long-lived complex. As usually defined, the kon is the second-order rate constant of association. As usually defined, the IC50 is the concentration at which inhibition is half-maximal.
